Source: patent US20060240487A1 (published 2006)

How the values were obtained:
[1] = molecular target: T1, biotinylated mature GDF-8 dimer (human, UniProt O14793 267-375, biotin on amine groups (lysine residues and/or amino termini); biotin:GDF-8 molar ratio between 0:1 and 3:1); test: ELISA standard curve parameters of the rat serum experiment; biotinylated GDF-8 on streptavidin plate
T1 construct: Captured on streptavidin-coated plates; also called Biotinylated GDF-8; biotinylated mature GDF-8 protein

[2] = molecular target: T1, biotinylated mature GDF-8 dimer; test: ELISA standard curve, 4-parameter logistic fit; c = concentration resulting in signal at approximately midpoint between a and d; biotinylated GDF-8 on streptavidin plate
Experimental: To detect MYO-029 in a human serum sample, an ELISA was performed as follows. Streptavidin was adsorbed by first adding streptavidin coating solution (100 μL/well) (5 μg/mL ImmunoPure streptavidin (Pierce) in 0.1 M Carbonate/Bicarbonate buffer, pH 9.6) to the wells of a 96 well plate (high binding flat-bottom microtiter) (Costar, Cat. No. 3590). The plate was covered with sealing film and incubated at 2-8° C. overnight. Using an automatic plate washer, the plate was washed four times (4×) with THST buffer (300 μL/well) (50 mM Tris-HCl, pH 8.0, containing 1.0 mM glycine, 0.5 M NaCl, and 0.05% v/v/ Tween 20® (J. T. Baker)), reversing the orientation of the plate after the second wash. To block, 200 μL of blocking buffer (1% bovine albumin (Sigma), 0.02% sodium azide in PBS (Dulbeccos)) was added to each well. The plate was covered with sealing film and incubated for 1-2 hours at room temperature and then washed as above. […]
A MYO-029 working calibrator solution was prepared of 1080 ng/mL MYO-029 in normal human serum (Bioreclamation, Inc.) The 1080 ng/mL stock was fist diluted 8-fold in assay buffer (THST buffer+4% nonfat dry milk), and then a series of 1.5 fold dilutions of the resulting 135 ng/mL standard were prepared in THST+4% nonfat dry milk+12.5% normal human serum to yield the calibration standard concentrations. […] For human serum, the minimum dilution determined was 1:8. […]

EC50 [1]: 0.0587 µg/mL
EC50 [2]: 0.0728 µg/mL
B1: MYO-029 (antibody, V domains shown)
VH: QVQLVQSGAEVKKPGASVKVSCKASGYTFTSYYMHWVRQAPGQGLEWMGIINPSGGSTSYAQKFQGRVTMTRDTSTSTVYMELSSLRSEDTAVYYCARDENWGFDPWGQGTLVTVSS
VL: SYELTQPPSVSVSPGQTATITCSGHALGDKFVSWYQQGSGQSPVLVIYDDTQRPSGIPGRFSGSNSGNTATLTISGTQAMDEADYFCQAWDSSFVFGGGTKVTVL
notes: also called fully human antibody
